Three molecules from patent US20060286609A1 (BIOCHECK, published 2006) can be followed below.

Where a chain is given by its changes, count along the chain named.

In experiment [1] the target is T1, Mouse Id3: Histidine (mouse, UniProt P41133 1-119, limits assumed).
T1 construct: E. coli fusion protein (vector pGW07); also called m-Id3: His; not shown: His-tag
T1 sequence (looked up): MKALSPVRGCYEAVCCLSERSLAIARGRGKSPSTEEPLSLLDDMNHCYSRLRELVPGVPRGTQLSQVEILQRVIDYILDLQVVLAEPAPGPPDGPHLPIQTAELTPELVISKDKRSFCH
The experiment in a line: ELISA, coated antigen, Ab 0.250 ug/ml.

Experiment [2] concerns the target T2, Mouse Id1: Histidine (mouse, UniProt P20067-2 1-148).
T2 construct: E. coli fusion protein (vector pGW07); also called m-Id1-His; not shown: His-tag
T2 sequence: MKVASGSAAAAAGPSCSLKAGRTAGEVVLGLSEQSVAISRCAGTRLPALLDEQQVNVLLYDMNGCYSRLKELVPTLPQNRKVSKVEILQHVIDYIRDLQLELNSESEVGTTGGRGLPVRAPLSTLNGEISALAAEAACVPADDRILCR
The experiment can be described thus: ELISA, coated antigen; reference mouse Id1.

The target of experiment [3] is Human Id1: Histidine (human) (UniProt P41134). The experiment can be described thus: sandwich ELISA, 5-3-coated wells, human Id1:His 50.0 ng/ml, detected with rabbit polyclonal B-5133-HRP.
Sequence of Human Id1: Histidine (human) (P41134 whole entry): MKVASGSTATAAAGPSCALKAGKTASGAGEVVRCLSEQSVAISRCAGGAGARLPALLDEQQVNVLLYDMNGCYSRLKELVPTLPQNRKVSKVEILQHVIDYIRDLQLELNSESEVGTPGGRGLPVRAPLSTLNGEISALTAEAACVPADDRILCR
Experiment [4] has the same target. The experiment in a line: sandwich ELISA, 5-3-coated wells, human Id1:His 10.0 ng/ml, detected with rabbit polyclonal B-5133-HRP.
The target is the same in experiment [5]. The experiment in a line: sandwich ELISA, 5-3-coated wells, human Id1:His 1.0 ng/ml, detected with rabbit polyclonal B-5133-HRP.
The target is the same in experiment [6]. The experiment in a line: sandwich ELISA, 5-3-coated wells, human Id1:His 2.5 ng/ml, detected with rabbit polyclonal B-5133-HRP.
The target is the same in experiment [7]. The experiment in a line: sandwich ELISA, 5-3-coated wells, human Id1:His 0 ng/ml (blank), detected with rabbit polyclonal B-5133-HRP.
Experiment [8] shares this target. The experiment can be described thus: ELISA, coated antigen, Ab 5.00 ug/ml.
The target in experiment [9] is T3, Human Id3: Histidine (human, UniProt Q02535 1-119, limits assumed).
T3 construct: E. coli fusion protein (vector pGW07); also called h-Id3: His; not shown: His-tag
T3 sequence (looked up): T1 sequence (looked up) with S31G, S33A, T34A, K112N
The experiment can be described thus: ELISA, coated antigen, Ab 0.10 ug/ml. How it is done:
(§1) Incubate plates at 2-8° C. overnight (16-24 hours). [0145] 11. Shake off the BSA solution. [0146] 12. Dispense 250 μL of 2.5% sucrose solution into each well. [0147] 13. Incubate plates at 2-8° C. for 4 hours. [0148] 14. Shake off sucrose solution. [0149] 15. Dry in vacuum at room temperature overnight. Screening Method [0150] 1. Dispense 100 μL of antibody diluent, diluted rabbit polyclonal anti-Id1 into appropriate wells. […] 2. Incubate at room temperature with mechanical shaking at 750 rpm for 90 minutes. [0152] 3. Remove the incubation mixture by flicking plate content into an appropriate waste container, followed by rinsing the wells 5 times with distilled water. […] 4. Strike the wells sharply onto absorbent paper or paper towels to remove all residual water droplets. [0154] 5. Dispense 100 μL of Goat Anti-Rabbit IgG-HRP Conjugate Reagent into each well. Gently mix for 5 seconds. [0155] 6. Incubate at room temperature with mechanical shaking at 750 rpm for 90 minutes. […] 7. Repeat procedures 3 and 4. [0157] 8. Dispense 100 μL of TMB Reagent into each well. Gently mix for 5 seconds. [0158] 9. Incubate at room temperature with mechanical shaking at 750 rpm for 20 minutes. [0159] 10. Add 100 μL of Stop Solution (1N HCl) into each well. [0160] 11. Gently mix for 10 seconds to ensure a complete mixing. […] 12. Read optical density (absorbance) at 450 nm. Results from this assay were used to select the rabbit sera with the highest antibodies titer that selectively reacts with mouse Id1 or human Id1 or both.
(§2) A comparison was carried out between the reactivity of the rabbit monoclonal anti-mouse Id1, clone #BCH-1/#37-2, of this invention and the mouse monoclonal anti-mouse/human Id1 from BD Pharmingen with the following antigens prepared in Example 5: mouse Id1:His, human Id1:His, human Id2:His, human Id3:His, and GST. These antigens and protein were used to coat the wells.
(§3) Materials and methods were those described in Example 9 except (a) Pharmingen's mouse monoclonal anti-mouse Id1 was used in addition to the rabbit monoclonal anti-mouse Id1 (Example 10), and (b) goat anti-mouse IgG-HRP conjugate was used to process the wells treated with the Pharmingen monoclonal antibody and polyclonal goat anti-rabbit IgG-HRP conjugate was used to process wells treated with rabbit monoclonal anti-mouse Id1.

Experiment [10] addresses T4, Human Id2: Histidine (human, UniProt Q02363 1-134, limits assumed).
T4 construct: E. coli fusion protein (vector pGW07); also called h-Id2: His; not shown: His-tag
T4 sequence (looked up): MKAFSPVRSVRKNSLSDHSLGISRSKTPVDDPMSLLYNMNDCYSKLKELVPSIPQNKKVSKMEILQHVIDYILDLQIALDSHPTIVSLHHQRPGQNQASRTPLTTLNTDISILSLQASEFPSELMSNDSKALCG
The experiment can be described thus: ELISA, coated antigen, Ab 0.10 ug/ml. As for the experimental part: as §1, §2, §3

In experiment [11] the target is T5, glutathione S-transferase (GST) (UniProt P08515 1-218 = GST).
T5 construct: Coated on wells as control for the fusion partner of the immunogen
T5 sequence (P08515 whole entry, the tested form may be a part): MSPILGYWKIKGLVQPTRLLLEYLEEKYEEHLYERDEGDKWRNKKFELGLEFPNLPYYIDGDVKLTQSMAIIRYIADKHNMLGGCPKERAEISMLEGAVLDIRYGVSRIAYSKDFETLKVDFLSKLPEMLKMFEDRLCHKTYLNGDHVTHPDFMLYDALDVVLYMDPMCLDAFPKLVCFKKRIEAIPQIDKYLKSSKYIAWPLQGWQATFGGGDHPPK
The experiment can be described thus: ELISA, coated antigen, Ab 0.10 ug/ml. How it is done:
as §1, §2, §3

Experiment [12] addresses T2, Mouse Id1: Histidine. The experiment in a line: ELISA, coated antigen, Ab 0.10 ug/ml. How it is done:
as §1, §2, §3

Experiment [13] addresses T3, Human Id3: Histidine. The experiment in a line: ELISA, coated antigen, Ab 5.00 ug/ml. How it is done: as §1, §2, §3
Experiment [14] concerns the target T4, Human Id2: Histidine. The experiment in a line: ELISA, coated antigen, Ab 5.00 ug/ml. As for the experimental part:
as §1, §2, §3

For experiment [15], the target named is T5, glutathione S-transferase (GST). The experiment in a line: ELISA, coated antigen, Ab 5.00 ug/ml. As for the experimental part:
as §1, §2, §3

Experiment [16] deals with T2, Mouse Id1: Histidine. The experiment can be described thus: ELISA, coated antigen, Ab 5.00 ug/ml. How it is done:
as §1, §2, §3

Molecule “rabbit monoclonal anti-mouse/human Id1, clone #BCH-1/#195-14 (antibody)” showed an A450 in experiment [1] of 0.049 A450. For the same molecule, the Cross-reactivity (%) in experiment [2] is 100%.

Take “rabbit monoclonal anti-human Id1, clone #BCH-2/#5-3 (antibody)”: the A450 in [3] is 3.15 A450; in [4], 0.815 A450; in experiment [1], 0.05 A450; in experiment [5], 0.124 A450; in experiment [6], 0.244 A450; in experiment [7], 0.046 A450.

B1: rabbit monoclonal anti-mouse Id1, clone #BCH-1/#37-2 (antibody, V domains shown)
VH: QSVEESGGRLVTPGTPLTLTCKVSGFDINSYAMDWFRQAPGKGLEWIGMMSTRGNTYYTSWAKGRFTISKTSSTTVDLKMTSLTTEDTATYFCARGGLWGPGTLVTVSS
VL: RVLTQTASPVSAAVGGTVTINCQASQSVYNGNRLGWYQLKPGQSPKELIHDASTLASGVPSRFRGSGSGTQFTLTINDVQCDDAATYYCVGSYACSTGDCNVFGGGTEVVVK
notes: Rabbit IgG from hybridoma, Protein G purified; also called m Id1 MoAb 37-2; Rabbit Monoclonal Anti-Mouse Id1 (#37-2)
With B1, the A450 was 0.153 A450 in experiment [8]; 0.048 A450 in [9]; 0.049 A450 in experiment [10]; 0.047 A450 in experiment [11]; 1.29 A450 in experiment [12]; 0.091 A450 in experiment [13]. Moreover, the A450 came to 0.083 A450 in experiment [14], 0.086 A450 in [15] and 3.26 A450 in experiment [16].
